Measured values taken from the supplement of paper PMC10567573.

B1: PTPN9 (parent)
chain: IDFLRVVRNQQSLAVSNMGARSKG
B2: CAMK2D (parent)
chain: IVRLHDSISEEGFHYLVFDLVTGG

Variants of: B1
Assay: protein stability index of a GFP-peptide fusion (GPS, HEK-293T) (PSI 1-6); higher = more stable
Settings: c terminus: a fixed tail appended
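Note: lentivirally expressed fusions sorted by FACS into six bins by GFP to DsRed ratio, PSI derived from sequencing read proportions per bin multiplied by bin number.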

Protein stability index, by site and new letter:
L13: W 2.72, E 3.58, V 2.85, D 3.08, A 2.73, F 2.34, K 2.75, N 3.2, H 2.45, T 2.57, C 2.14, S 2.7, G 3.24, R 2.34, I 2.31, Y 2.57, M 2.51, P 2.96, Q 3.3
S22: H 2.55, M 1.81, C 2.51, V 2.03, W 2.4, K 2.46, Y 2.16, L 2.07, F 2.24, R 2.64, G 2.27, A 2.2, N 2.57, D 2.69, T 2.23, I 2.05, Q 2.86, P 2.4, E 3.13
R8: H 2.32, T 2.13, Y 1.78, S 1.8, K 2.26, V 1.88, W 1.94, M 1.46, L 2.04, P 2.51, Q 2.32, N 2.27, I 2.65
M18: N 3.06, P 2.57, E 3.28, Q 2.73, W 2.03, F 2, Y 2.04, A 3.02, H 2.91, S 3.13, D 3.05, T 3.23, I 2.13, C 2.51, G 2.85, L 2.67, R 3.35, K 2.87, V 2.32
Q11: G 2.35, A 1.99, V 1.67, I 1.8, D 2.57, F 1.95, T 2.29, M 2.1, E 2.35, N 2.84, W 1.34, C 1.91, Y 2.12, K 2.26, S 2.31, R 2.31, L 1.81, P 2.37, H 2.26
G19: D 2.35, K 2.58, Q 2.96, I 2.19, F 2.94, C 2.24, P 2.83, Y 2.16, R 1.97, S 2.08, M 2.3, V 2.13, N 2.72, T 2.27, H 2.57, W 2.66, E 2.91, A 2.47, L 2.12
V15: F 2.18, Q 2.79, K 2.62, G 2.83, N 2.86, S 2.49, T 2.69, D 2.52, I 1.97, R 2.31, Y 2.15, C 2.28, W 2.25, M 2.61, P 2.36, E 2.69, L 2.41, A 2.82, H 2.56
S16: W 1.46, L 1.89, D 2.48, H 2.15, P 2.54, Q 2.78, Y 2.38, M 1.83, I 1.74, A 3.26, T 2.2, E 2.64, G 2.35, F 2.31, R 2.78, N 2.52, C 1.99, V 1.9, K 2.59
A14: D 2.17, W 2.39, F 2.23, H 2.48, V 2.22, E 1.95, L 1.76, Q 2.09, P 2.7, G 2.3, T 2.64, I 1.8, M 2.66, K 2.13, C 2.01, S 2.23, N 2.4, Y 2.04, R 2.13
A20: D 2.57, F 2.1, S 2.75, T 2.06, P 2.57, N 2.78, V 2.42, W 2.32, Y 2.44, C 2.6, M 2.32, K 2.69, I 1.99, Q 2.25, H 2.38, G 2.43, L 2.21, E 1.92, R 2.47
N17: M 1.65, Y 1.93, D 2.63, Q 2.42, W 2.14, G 2.21, P 2.27, V 2, H 2.9, L 2.22, A 2.7, R 2.45, C 2.1, I 2.09, S 2.74, T 2.71, F 2.12, K 2.24, E 3.08
S12: F 2.26, D 2.75, L 2.31, R 2.52, T 2.15, Q 2.02, M 2.22, P 2.46, W 1.69, G 2.48, K 2.55, E 2.65, V 2.34, I 1.99, Y 1.8, A 2.04, C 1.89, H 2.41, N 2.1
G24: E 2.95, Y 3.1, M 2.18, F 1.84, H 2.27, P 2.2, I 2.3, A 2.55, Q 2.72, S 2.28, V 2.45, C 1.84, W 1.76, R 2.48, L 2.18, T 2.63, D 2.75, N 2.46, K 3.05
N9: G 2.3, C 1.96, P 2.78, D 3.66, F 2.66, E 2.67, K 2.58, L 1.61, H 2.57, Q 2.14, A 1.94, V 1.89, M 1.88, T 2.28, Y 1.93, I 1.67, R 2.44, S 2.15
K23: F 1.51, P 2.09, D 2.36, E 2.32, Y 1.92, A 2.01, M 1.91, I 1.72, V 1.72, S 1.68, W 1.59, G 1.96, Q 3.29, T 1.32, L 1.72, H 1.75, C 1.88, R 2.4, N 2.02
R21: S 2.37, M 1.77, V 2, H 2.67, G 3.16, N 2.65, P 2.15, A 2.6, Y 2.08, C 1.83, K 2.4, F 2.45, D 2.54, W 2.18, I 2.14, L 1.7, Q 2.18, T 1.66, E 2.3
Q10: C 1.89, T 2.4, M 2.54, A 2.06, E 2.87, N 2.39, Y 2.35, K 2.27, V 2.02, P 2.74, I 1.95, G 3.19, D 2.63, W 2.02, L 2.2, R 2.19, F 2.35, S 1.43, H 2.49

Variants of: B2
Assay: as above
Settings: c terminus: a fixed tail appended

Protein stability index, by site and new letter:
I1: V 2.13, P 1.25, K 2.05, M 3.44, S 3.07, H 3.43, N 1.75, F 1.06, T 2.07, E 2.24, G 1.94
V2: E 2.3, D 1.79, M 1.93, K 1.51, A 2.29, I 3.28, L 2.69
